Test: yeast display, Sf9 membrane polyspecificity reagent, FACS + sequencing; frameworks hold sequencing errors
Summary of the method: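 Nanobodies from a synthetic yeast display library (Saccharomyces cerevisiae BJ5465), induced 36–48 hours with galactose, were stained 1 hour at 4 °C with 10% biotinylated, detergent-solubilized Sf9 membrane reagent, enriched on streptavidin microbeads, then FACS-sorted. Anti-HA (expression) and streptavidin (reagent binding) fluorescence set low and high (top ~1%) gates. Polyreactivity labels come from the gate of origin. Genes were colony-PCR amplified, MiSeq 2 × 250 sequenced and filtered by CDR length.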

Row | Sequence | polyreactivity (PSR sort gate)
1 | QVQLVESGGGLVQAGGSLRLSCAASGSIFSPNAMGWYRQAPGKERELVATISFSGGRTYYADSVKGRFTISRDNAKNTVYLQMNSLKPEDTAVYYCAKAYYYTDMDYWGQGTQVTVSS | low polyreactivity
2 | QVQLVESGGGLVQAGGSLRLSCAASGSIFSPYAMGWYRQAPGKERELVAAIRWGGGGTYADSVKGRFTISRDNAKNTVYLQMNSLKPEDTAVYYCAARRRSRRGYDYWGQGTQVTVSS | high polyreactivity
3 | QVQLVESGGGLVQAGGSLRLSCAASGSIFSPYAMGWYRQAPGKERELVAAISFRASTTYYADSVKGRFTISRDNAKNTVYLQMNSLKPEDTAVYYCAASPLYSWFWGLYDYWGQGTQVTVSS | low polyreactivity
4 | QVQLVESGGGLVQAGGSLRLSCAASGSIFSPYAMGWYRQAPGKERELVDAISFRASTTYYADSVKGRFTISRDNAKNTVYLQMNSLKPEDTAVYYCAASPLYSWFWGLYDYWGQGTQVTVSS | low polyreactivity
5 | QVQLVESGGGLVQAGGSLRLSCAASGSIFSQNAMGWYRQAPGKERELVASITYSGGSTYYADSVKGRFTISRDNAKNTVYFQMNSLKPEDTEVYYCAADVRYSSRFYYWGQGTQVTVSS | high polyreactivity
6 | QVQLVESGGGLVQAGGSLRLSCAASGSIFSQYAMGCYREAPGKERELVAAISSSGDSTNYADSVKGRFTISRDNAKNTVYLQMNSLKPEDTGVYDCAADPYYFYIWYWWPSFDYWGQGTQVTVSS | low polyreactivity
7 | QVQLVESGGGLVQAGGSLRLSCAASGSIFSQYAMGSYRQAPGKERELVAAITSGGRTYYADSVKGRFTISRDNAKNTVYLQMNSLKPEDTAVYYCAASRRGGGLDYWGQGTKVTVSS | high polyreactivity
8 | QVQLVESGGGLVQAGGSLRLSCAASGSIFSQYAMGWYRQAPGKERELVAAISASGGRTYYADSVKGRFTISRDNAKNTVYLQMNSLKPEDTAVYYCNAAHGSNRYSFVNPFYYWGQGTQVTVSS | high polyreactivity
9 | QVQLVESGGGLVQAGGSLRLSCAASGSIFSQYAMGWYRQAPGKERELVAAITYGGGSTYYADSVKGRFTISRDNAKNTVYLQMNSLKPEDTAVYYCAKEFKYWGYPYDYWGQGTQVTVSS | low polyreactivity
10 | QVQLVESGGGLVQAGGSLRLSCAASGSIFSRNAMGWYRQAPGTERELVAAITDSTGTTYYADSVKGRFTISRDNAKNTVYLQMNSLKPEDTAVYYCNAVGVPQGNFYVRGDDYWGQGTQVTVSS | low polyreactivity
11 | QVQLVESGGGLVQAGGSLRLSCAASGSIFSRNTLGWYRQAPGKERELVAAITRGGSTDYADSVKGRFTISRDNAKNTVYLQMNSLKPEDTAVYYCAKKTPGWGKFDYWGQGTQVTVSS | low polyreactivity
12 | QVQLVESGGGLVQAGGSLRLSCAASGSIFSRNVMGWSRQAPGKERELVAGISWRGGRTYYADSVKGRFTISRDNAMITVYLQMTSLKPEDTAVYYCAKGGVSYGEGDYWGQGTQVTVSS | high polyreactivity
13 | QVQLVESGGGLVQAGGSLRLSCAASGSIFSRYAMGWYRQAPGKERELVAAISSSGSSTYYADSVKGRFTISRDNAKNTVYLQMNSLKPEDTAVYYCAATGYPRFGYWGQGTQVTVSS | high polyreactivity
14 | QVQLVESGGGLVQAGGSLRLSCAASGSIFSRYAMGWYRQAPGKERELVAAITSSGTSTYYADSVKGRFTISRDNAKNTVYLQMNSLKPEDTAVYYCAAAFRQRTSRFDYWGQGSQVTVSS | high polyreactivity
15 | QVQLVESGGGLVQAGGSLRLSCAASGSIFSRYAMGWYRQAPGKERELVADITTRGGRTYYADSVKGRFTISRDNAKNTVYLQMNSLKPEDTAVYYCATLHSYRYRGGGDYWGQGTQVTVSS | high polyreactivity
16 | QVQLVESGGGLVQAGGSLRLSCAASGSIFSRYAMVWYRQAPGKERELVAAISWSGGRTYYADSVKGRFTISRDNAKNTVYLQMNSLKPEDTAVYYCAAPSYTTSWRYDYWGQGTQVTVSS | high polyreactivity

Row | Sequence | polyreactivity (PSR sort gate)
17 | QVQLVESGGGLVQAGGSLRLSCAASGSIFSRYTMGWYRQAPGKERELVAAISSGGSTNYADSVKGRFTISRDNAKNTVYLQMNRLKPEDTAVYYCAARSYRYYYGFDYWGQGTQVTVSS | low polyreactivity
18 | QVQLVESGGGLVQAGGSLRLSCAASGSIFSRYTMGWYRQAPGKERELVAAISYSGTRTYYADSVKGRFTISRDNAKNTVYLQMNSLKPEDTAVYYCAAIASPAGSNYWGQGTQVTVSS | high polyreactivity
19 | QVQLVESGGGLVQAGGSLRLSCAASGSIFSRYTMGWYRQAPGKERELVAAITSSGVSTYYADSVKGRFTISRDNAKNTVYLQMNSLKPEDTAVYYCAAYSVFRSYDYWGQGTQVTVSS | high polyreactivity
20 | QVQLVESGGGLVQAGGSLRLSCAASGSIFSRYTMGWYRQAPGKERELVAVISTSGGSTYYADSVKGRFTISRDNAKNTVYLQMNSLKPEDTAVYYCNARPKRGSLGGPGYGYWGQGTQVTVSS | high polyreactivity
21 | QVQLVESGGGLVQAGGSLRLSCAASGSIFSSNAMGWYRPAPGKERELVAAITSGGSTTYADSVKGRFTISRDNAKNTVYLQMNSLKPEDTAVYYCNARNYYYPSDRDYWGQGTQVTVSS | low polyreactivity
22 | QVQLVESGGGLVQAGGSLRLSCAASGSIFSSNAMGWYRQAPGKERELVAAITSGGSTTYADSVKGRFTISRDNAKNTVYLQMNSLKPEDTAVYYCAADPVYRYYHGWTYLDYDYWGQGTQVTVSS | low polyreactivity
23 | QVQLVESGGGLVQAGGSLRLSCAASGSIFSSNAMGWYRQAPGKERELVAAITVSGGSTYYADSVKGRFTISRDNAKNTVYLQMNSLKPEDTAVYDCAVPVTYYFDGSWWRYDYWGQGTQVTVSS | high polyreactivity
24 | QVQLVESGGGLVQAGGSLRLSCAASGSIFSSNAMGWYRQAPGTTNYADSVKGRFTISRDNAKNTVYLQMNSLKPEDTAVYYCAKDYVLFQYVDFQDDDYWGQGTQVTVSS | low polyreactivity
25 | QVQLVESGGGLVQAGGSLRLSCAASGSIFSSNTMGWYRQAHGKERELVAAITVSGGRTYYADSVKGRFTISRDNAKNTVYLQMNSLKPEDTAVYYCATRWFGNSYSYRAYDYWGQGTQVTVSS | high polyreactivity
26 | QVQLVESGGGLVQAGGSLRLSCAASGSIFSSNTMGWYRQAPGKERELVAAITVSGGRTYYADSVKGRFTISRDNAKNTVYLQMNSLKPEDTAVYYCATRWFGNSYSYRAYDYWGQGTQVTVSS | high polyreactivity
27 | QVQLVESGGGLVQAGGSLRLSCAASGSIFSSYAMGWYRQAPGKEREFVAAINNNDGGTDYADSVKGRFTISRDNAKNTVYLQMNSLKPEDTAVYYCAADYTRYVQTTYDYWGQGTQVTVSS | low polyreactivity
28 | QVQLVESGGGLVQAGGSLRLSCAASGSIFSSYAMGWYRQAPGKERELVAAISTAGSTNYADSVKGRFTISRDNAKNTVYLQMNSLKPEDTAVYYCAADSGDQQSYGLDLNHDFDYWGQGTQVTVSS | low polyreactivity
29 | QVQLVESGGGLVQAGGSLRLSCAASGSIFSSYAMGWYRQAPGKERELVAGISKSGGSTYYADSVKGRFTISRDNAKNTVYLQMNSQKPEDTAVYYCAGPSYWGGGRYRYGYWGQGTQVTVSS | high polyreactivity
30 | QVQLVESGGGLVQAGGSLRLSCAASGSIFSSYTMGWYRQAPGKERELVAAISSTGSTYYADSVKGRFTISRDNAKNTVYLQMNSLKPEDTAVYYCAARGWYWQQYKGHTRYDYWGQGTQVTVSS | high polyreactivity
31 | QVQLVESGGGLVQAGGSLRLSCAASGSIFSTYAMGWYRQAPGKERELVAAINSGDSTSYADSVKGRFTISRDNAKNTVYLQMNSLKPEDTAVYYCAAKTGGYWYLRRTGRYESWGQGTQVTVSS | low polyreactivity
32 | QVQLVESGGGLVQAGGSLRLSCAASGSIFSTYAMGWYRQAPGKERELVAAITRRGGSTYYADSVKGRFTISRDNAKNTVYLQMNSLKPEDTAVYYCNAAAKSRMDYWGQATQVTVSS | high polyreactivity

Source: the nanobody polyreactivity screen of Harvey et al. (2022)
